Reference: article PMC12702776, “New insights into the classification of the RAC1 P29S hotspot mutation in melanoma as an oncogene” (Cancer Gene Therapy, 2025)

Molecular target: RAC1^P29S, purified (human, UniProt P63000 1-192, P29S)
Experiment: stopped-flow fluorimetry; mGppNHp-bound RAC1 with varying concentrations of His-IQGAP1 C794; kon, koff, Kd = koff/kon
Conditions: both partners purified

B1: His-IQGAP1 C794 (C-terminal 794 amino acids of IQ motif-containing GTPase-activating protein 1) (domain or fragment)
chain: PPMVVVRKFVHLLDQSDQDFQEELDLMKMREEVITLIRSNQQLENDLNLMDIKIGLLVKNKITLQDVVSHSKKLTKKNKEQLSDMMMINKQKGGLKALSKEKREKLEAYQHLFYLLQTNPTYLAKLIFQMPQNKSTKFMDSVIFTLYNYASNQREEYLLLRLFKTALQEEIKSKVDQIQEIVTGNPTVIKMVVSFNRGARGQNALRQILAPVVKEIMDDKSLNIKTDPVDIYKSWVNQMESQTGEASKLPYDVTPEQALAHEEVKTRLDSSIRNMRAVTDKFLSAIVSSVDKIPYGMRFIAKVLKDSLHEKFPDAGEDELLKIIGNLLYYRYMNPAIVAPDAFDIIDLSAGGQLTTDQRRNLGSIAKMLQHAASNKMFLGDNAHLSIINEYLSQSYQKFRRFFQTACDVPELQDKFNVDEYSDLVTLTKPVIYISIGEIINTHTLLLDHQDAIAPEHNDPIHELLDDLGEVPTIESLIGESSGNLNDPNKEALAKTEVSLTLTNKFDVPGDENAEMDARTILLNTKRLIVDVIRFQPGETLTEILETPATSEQEAEHQRAMQRRAIRDAKTPDKMKKSKSVKEDSNLTLQEKKEKIQTGLKKLTELGTVDPKNKYQELINDIARDIRNQRRYRQRRKAELVKLQQTYAALNSKATFYGEQVDYYKSYIKTCLDNLASKGKVSKKPREMKGKKSKKISLKYTAARLHEKGVLLEIEDLQVNQFKNVIFEISPTEEVGDFEVKAKFMGVQMETFMLHYQDLLQLQYEGVAVMKLFDRAKVNVNLLIFLLNKKFYGK
notes: neither is stated here
fold higher binding affinity than that of PAK1 for RAC1^P29S: 30 fold
